# From PMC3642112
# T1: translin (wild-type, native) (Drosophila melanogaster, UniProt Q7JVK6 1-235)
# T1 sequence: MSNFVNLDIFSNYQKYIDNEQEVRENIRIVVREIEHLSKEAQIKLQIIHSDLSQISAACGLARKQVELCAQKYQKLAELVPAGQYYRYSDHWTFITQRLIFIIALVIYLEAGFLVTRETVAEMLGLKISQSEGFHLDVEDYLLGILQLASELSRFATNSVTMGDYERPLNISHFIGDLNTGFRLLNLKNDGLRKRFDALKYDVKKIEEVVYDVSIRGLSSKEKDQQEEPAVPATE
# Columns and labels:
# [1] = target: T1, translin (wild-type, native); experiment: EMSA
# [2] = target: human translin (wild-type) (human, UniProt Q15631 1-228); experiment: EMSA
# Chain of human translin (wild-type) (Q15631 whole entry): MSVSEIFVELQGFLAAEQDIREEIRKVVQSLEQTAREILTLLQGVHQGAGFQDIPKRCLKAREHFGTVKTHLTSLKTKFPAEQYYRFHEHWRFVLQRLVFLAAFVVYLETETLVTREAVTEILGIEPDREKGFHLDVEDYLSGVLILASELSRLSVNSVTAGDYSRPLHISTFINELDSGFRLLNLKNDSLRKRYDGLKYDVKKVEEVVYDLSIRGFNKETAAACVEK
binder,measurement,setting,value
GCCCTCCTGCCCTCCTTCCGCGGG (ssDNA) [Bcl-CL1 24-mer ssDNA],binding result,[1],binds
same,binding result,[2],binds
